T1: SlHY5 (Solanum lycopersicum, UniProt Q9SM50 1-158)
T1 sequence: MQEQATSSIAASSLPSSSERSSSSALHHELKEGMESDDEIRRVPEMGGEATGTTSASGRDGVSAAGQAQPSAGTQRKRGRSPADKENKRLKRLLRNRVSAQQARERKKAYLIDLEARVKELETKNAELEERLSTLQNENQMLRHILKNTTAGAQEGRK


Target: T1, SlHY5
Experiment: EMSA; LightShift Chemiluminescent EMSA kit (Thermo 20148); buffer, salt, pH and temperature not stated
Conditions: protein: recombinant, tags: His, chain copies: 2, blunt

Binder | binding result
SlLHCB-m probe (dsDNA) DNA 1: CTGCTTAGTTGTTTTTCTTGTAATCCTC DNA 2: GAGGATTACAAGAAAAACAACTAAGCAG | no binding
SlLHCA-m probe (dsDNA) DNA 1: CAAATTGGTGACATTTTACATTCTGGCA DNA 2: TGCCAGAATGTAAAATGTCACCAATTTG | no binding
SlLHCB probe (dsDNA) DNA 1: CTGCTTAGTTGTACGTCTTGTAATCCTC DNA 2: GAGGATTACAAGACGTACAACTAAGCAG | binds
SlLHCA probe (dsDNA) DNA 1: CAAATTGGTGACAACGTACATTCTGGCA DNA 2: TGCCAGAATGTACGTTGTCACCAATTTG | binds
SlCYCB-m probe (dsDNA) DNA 1: ACGTGTTTATTTTTTACTTTAAGATTTTG DNA 2: CAAAATCTTAAAGTAAAAAATAAACACGT | no binding
SlCYCB probe (dsDNA) DNA 1: ACGTGTTTATTTTTTACTTTAAGAACGTG DNA 2: CACGTTCTTAAAGTAAAAAATAAACACGT | binds
